According to PMC5902456:
Read-outs that look alike come from different tables or passages of the source. Values belong to the molecule of their own block, whether it stands above or below them.

Columns and labels:
[1] = target: sfGFP-MAP7 (full-length human MAP7) (human) (UniProt Q14244); experiment: TIRF microscopy of fluorescent proteins on immobilized microtubules; recruitment and motility: MAP7 (or ensconsin), 5 nM, flowed in first onto immobilized microtubules, then the kinesin-1 construct (1 nM K560); BRB80 pH 6.8 with 1 mM ATP, 150 mM K-acetate; fold change of kinesin fluorescence on the microtubule against no MAP
[2] = target: sfGFP-Ensconsin, wild type (Drosophila melanogaster) (Drosophila melanogaster); experiment: as above
Sequence of sfGFP-Ensconsin, wild type (Drosophila melanogaster) (Drosophila melanogaster) (main, as listed by the source): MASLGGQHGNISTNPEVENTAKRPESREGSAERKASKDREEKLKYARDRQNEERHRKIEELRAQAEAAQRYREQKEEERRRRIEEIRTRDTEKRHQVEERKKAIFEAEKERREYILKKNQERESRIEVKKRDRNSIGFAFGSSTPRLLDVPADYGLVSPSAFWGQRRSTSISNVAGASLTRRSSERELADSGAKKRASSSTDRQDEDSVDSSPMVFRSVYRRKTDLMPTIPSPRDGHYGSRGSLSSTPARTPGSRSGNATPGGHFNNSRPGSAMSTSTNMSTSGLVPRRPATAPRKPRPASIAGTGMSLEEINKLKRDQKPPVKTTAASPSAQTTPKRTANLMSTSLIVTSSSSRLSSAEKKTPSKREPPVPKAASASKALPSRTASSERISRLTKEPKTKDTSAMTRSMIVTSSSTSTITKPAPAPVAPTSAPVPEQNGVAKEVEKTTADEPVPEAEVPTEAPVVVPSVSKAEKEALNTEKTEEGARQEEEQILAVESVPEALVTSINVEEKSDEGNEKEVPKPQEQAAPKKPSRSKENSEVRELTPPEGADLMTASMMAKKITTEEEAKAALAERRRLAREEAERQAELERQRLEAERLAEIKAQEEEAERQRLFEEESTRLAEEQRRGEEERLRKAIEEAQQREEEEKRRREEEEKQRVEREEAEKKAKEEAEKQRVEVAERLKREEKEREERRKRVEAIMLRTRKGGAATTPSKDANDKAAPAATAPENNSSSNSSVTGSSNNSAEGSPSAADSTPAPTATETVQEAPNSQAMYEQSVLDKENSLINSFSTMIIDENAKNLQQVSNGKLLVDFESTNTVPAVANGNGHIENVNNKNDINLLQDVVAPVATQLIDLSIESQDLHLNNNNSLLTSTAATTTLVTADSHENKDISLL

[3] = target: taxol-stabilized microtubules of native tubulin, biotin-tubulin and fluorescent-tubulin from porcine brain (~10:1:1) (porcine) (UniProt P02550); experiment: as above
[4] = target: taxol-stabilized microtubules polymerized from porcine brain tubulin (porcine) (UniProt P02550)
[5] = target: taxol-stabilized microtubules of native tubulin, biotin-tubulin and fluorescent-tubulin from porcine brain (~10:1:1) (porcine) (UniProt P02550); experiment: TIRF microscopy of fluorescent proteins on immobilized microtubules; 5 nM KIF1A-mScarlet or 3 nM DDB-TMR on immobilized microtubules, alone or with 5 nM sfGFP-MAP7 or 100 nM mTagBFP-tau; 30 mM Hepes pH 7.4, 150 mM K-acetate, 2 mM Mg-acetate, 1 mM EGTA, 10% glycerol, 1 mM ATP
[6] = target: taxol-stabilized microtubules of native tubulin, biotin-tubulin and fluorescent-tubulin from porcine brain (~10:1:1) (porcine) (UniProt P02550); experiment: single-molecule dwell time by TIRF microscopy; 250 pM sfGFP-MAP7 or 10 nM sfGFP-tau on immobilized microtubules; kymograph analysis; cumulative frequencies fit to a one phase exponential decay; 30 mM Hepes pH 7.4, 150 mM K-acetate buffer
[7] = target: taxol-stabilized microtubules polymerized from porcine brain tubulin (porcine) (UniProt P02550); experiment: co-sedimentation; 500 nM sfGFP-MAP7 or sfGFP-tau with increasing microtubules; 50 mM Tris pH 8, 150 mM K-acetate, 2 mM Mg-acetate, 1 mM EGTA, 10% glycerol, DTT, taxol, BSA; 25 °C, 20 min; pelleted at 90,000 g; SDS-PAGE; apparent KD
[8] = target: taxol-stabilized microtubules of native tubulin, biotin-tubulin and fluorescent-tubulin from porcine brain (~10:1:1) (porcine) (UniProt P02550); experiment: TIRF microscopy of fluorescent proteins on immobilized microtubules; TIRF-M-based microtubule-binding assay; KD derived from saturation curves
[9] = target: taxol-stabilized microtubules polymerized from porcine brain tubulin (porcine) (UniProt P02550); experiment: co-sedimentation; 500 nM sfGFP-MAP7 or sfGFP-tau with increasing microtubules; 50 mM Tris pH 8, 150 mM K-acetate, 2 mM Mg-acetate, 1 mM EGTA, 10% glycerol, DTT, taxol, BSA; 25 °C, 20 min; pelleted at 90,000 g; SDS-PAGE; apparent KD; remark: listed apart in the source

Molecule: K508-mScarlet (from UniProt P33176 1-508) (domain or fragment)
- fold change in fluorescence intensity on the microtubule in the presence of sfGFP-MAP7 [1]: 10.9 fold

Molecule: K523-mScarlet (from UniProt P33176 1-523) (domain or fragment)
- fold change in fluorescence intensity on the microtubule in the presence of sfGFP-MAP7 [1]: 152 fold

Molecule: K560-mScarlet (truncated human kinesin-1) (from UniProt P33176 1-560) (domain or fragment)
- fold change in fluorescence intensity on the microtubule in the presence of ensconsin [2]: 147 fold
- landing rate (motors μm^−1 min^−1) [3]: 0.09
- landing rate with 5 nM sfGFP-MAP7 (motors μm^−1 min^−1) [3]: 1.34
- fold change in fluorescence intensity on the microtubule in the presence of sfGFP-MAP7 [1]: 165 fold
- KmMT of the microtubule-stimulated ATPase of 50 nM K560-mScarlet, with 50 nM sfGFP-MAP7 [4]: 0.27 µM
- KmMT of the microtubule-stimulated ATPase of 50 nM K560-mScarlet, without MAP7 [4]: 1.46 µM

Molecule: dynein–dynactin-BicD2 (DDB)-TMR complex (from UniProt Q921C5 1-820)
- fluorescence intensity on the microtubule [5]: 164 A.U.
- fluorescence intensity on the microtubule with 5 nM sfGFP-MAP7 [5]: 147 A.U.

The next lines start with the values.

- dwell time decay constant τ [6]: 82.3 s
- Kd [7]: 470 nM
- Kd [8]: 3030 nM
- Kd [9]: 460 nM
Molecule: sfGFP-MAP7 (full-length human MAP7) (from UniProt Q14244 1-749) (natural protein)

- Kd [8]: 1390 nM
Molecule: sfGFP-MAP7ΔC (aa 1–353) (from UniProt Q14244 1-353) (domain or fragment)

- fluorescence intensity on the microtubule [5]: 1000 A.U.
- fluorescence intensity on the microtubule with 5 nM sfGFP-MAP7 [5]: 332 A.U.
- fluorescence intensity on the microtubule with 100 nM mTagBFP-tau [5]: 427 A.U.
- landing rate (motors μm^−1 min^−1) [5]: 1.5
- landing rate with mTagBFP-tau (motors μm^−1 min^−1) [5]: 0.24
- landing rate with sfGFP-MAP7 (motors μm^−1 min^−1) [5]: 0.38
B1: KIF1A-mScarlet (human KIF1A 1–393) (domain or fragment)
chain: MAGASVKVAVRVRPFNSREMSRDSKCIIQMSGSTTTIVNPKQPKETPKSFSFDYSYWSHTSPEDINYASQKQVYRDIGEEMLQHAFEGYNVCIFAYGQTGAGKSYTMMGKQEKDQQGIIPQLCEDLFSRINDTTNDNMSYSVEVSYMEIYCERVRDLLNPKNKGNLRVREHPLLGPYVEDLSKLAVTSYNDIQDLMDSGNKARTVAATNMNETSSRSHAVFNIIFTQKRHDAETNITTEKVSKISLVDLAGSERADSTGAKGTRLKEGANINKSLTTLGKVISALAEMDSGPNKNKKKKKTDFIPYRDSVLTWLLRENLGGNSRTAMVAALSPADINYDETLSTLRYADRAKQIRCNAVINEDPNNKLIRELKDEVTRLRDLLYAQGLGDITD
